Consider one substance from patent US20060115839A1.

The target of this assay is T1, histone H3 peptide with dimethylated Lys79 (isothermal titration calorimetry).
T1 sequence (peptide, dimethylated Lys79): IAQDFKTDLR
As to the kind of experiment: isothermal titration calorimetry (data not shown). A general note: In ITC the heat of successive injections is recorded.

Sequence of 53BP1 tandem tudor domain (isothermal titration calorimetry) (P70399 1480-1621 limits assumed): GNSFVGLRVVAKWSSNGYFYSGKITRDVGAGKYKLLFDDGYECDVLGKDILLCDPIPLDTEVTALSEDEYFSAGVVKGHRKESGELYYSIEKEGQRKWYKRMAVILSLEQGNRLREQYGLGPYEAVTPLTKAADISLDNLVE

A word on the Kd: it is a measure of binding affinity in units of concentration. A higher Kd goes with a looser complex. Consider “53BP1 tandem tudor domain (isothermal titration calorimetry) (from UniProt P70399 1480-1621)”, for which the Kd is < 1000 nM.
